Source: PMC3205914 (Nature cell biology, 2010)

Key:
[1] = biological target: T1, 6His–ParB (Caulobacter crescentus) (C. crescentus, UniProt B8GW30 1-304); assay: SPR
T1 sequence (looked up): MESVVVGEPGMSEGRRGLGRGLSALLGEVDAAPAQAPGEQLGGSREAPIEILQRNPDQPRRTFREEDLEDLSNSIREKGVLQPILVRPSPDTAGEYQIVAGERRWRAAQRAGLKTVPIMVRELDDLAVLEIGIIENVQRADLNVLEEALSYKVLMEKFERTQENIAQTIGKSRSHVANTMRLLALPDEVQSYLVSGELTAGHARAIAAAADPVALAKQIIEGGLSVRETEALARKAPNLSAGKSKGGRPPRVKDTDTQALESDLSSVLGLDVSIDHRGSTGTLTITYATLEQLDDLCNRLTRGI

light scattering = biological target: the molecule itself; assay: light scattering
[2] = biological target: T2, ParB (Caulobacter crescentus centromere-binding protein), immobilized for SPR (C. crescentus, UniProt B8GW30 1-304); assay: SPR
T2 sequence (looked up): T1 sequence (looked up)

Measured: binding result

B1: ParA (Caulobacter crescentus ATPase ParA), purified (enzyme, C. crescentus, UniProt B8GW31 1-267, looked up)
chain: MSANPLRVLAIANQKGGVGKTTTAINLGTALAACGERVLLIDADPQGNCSTGLGIGRTQRRTTLYDVLMGEAPVVDAAVKTELPGLDVIPADADLSGVEIELGQTARRSYRLRDALEAIRANGPYTYVLIDCPPSLNVLTVNAMTAADAVFVPLQCEFFALEGLTQLMRTIERVRGSLNPRLEIQGVVLTMYDRRNSLSEQVAKDVRAHFGDKVYDAVIPRNVRVSEAPSFGKPVLLYDLKCAGSQAYLKLAREVISRERDRQAKAA
binds: all assays above
